In the experiment the target is T1, Shank1-PDZ (UniProt Q9WV48, residues 654-768) (UniProt Q9WV48 654-768).
T1 construct: Shank1 PDZ domain, UniProt Q9WV48, residues 654-768; 100% identical with the human homolog Q9Y566 residues 654-768; also called Shank-PDZ; source: production and purification by the protocol of Sánta et al. 2022
T1 sequence (looked up): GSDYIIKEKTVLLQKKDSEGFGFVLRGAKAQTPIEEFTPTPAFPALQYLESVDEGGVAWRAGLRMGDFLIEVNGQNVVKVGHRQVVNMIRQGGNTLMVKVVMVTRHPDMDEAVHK
The experiment is described as follows: BLI; BLItz instrument, NTA biosensors; His-tagged GKAP-Ct43 immobilised as bait at 200 nM; Shank1-PDZ at 4, 2, 1 and 0.5 uM; 50 mM NaPi pH 7.4, 20 mM NaCl, 20 mM imidazole, 0.1% BSA, 0.02% Tween20; room temperature (no temperature control); global fit, average of three independent measurements. The settings on record: both partners purified.

The Kd is the concentration at which binding is half-saturated. A lower Kd goes with tighter binding.

Where no end group is shown, it is not given here.

B1: GKAP-Ct43, C-terminal 43 residues of Rattus norvegicus GKAP, with 6xHis tag kept (domain or fragment)
chain: GSHMSSQRQEARKRLMAAKRAASVRQNSATESAESIEIYIPEAQTRL
modifications: also: 6xHis tag named, not in given chain
notes: vector-derived residues that remain N-terminal after TEV cleavage; in the uncleaved BLI construct they follow the 6xHis tag and the TEV site; Guanylate kinase-associated protein GKAP (rGKAP1a), Rattus norvegicus, UniProt P97836, residues 950-992; 100% identical to human DLGAP1 O14490 residues 935-977; Modified pET-15b vector with 6xHis tag and TEV site; also called rGKAP1a C-terminus; source: TEV …
For B1, binding was characterised by a dissociation constant (Kd) of 3.1 ± 0.7 µM.

These data come from publication PMC12589307, “^1H, ^13C, and ^15N resonance assignment of the C terminal region of the disordered postsynaptic scaffold protein GKAP” (Biomolecular Nmr Assignments, 2025).
